Laboratory results as given in US20220204643A1 (published 2022).
One block for each binder: values may come before it.

What was measured:
Deoxyhypusine synthase = biological target: T1, Deoxyhypusine synthase (human, UniProt P49366 1-369); assay: protein array
T1 construct: on protein array; also called DHPS
T1 sequence: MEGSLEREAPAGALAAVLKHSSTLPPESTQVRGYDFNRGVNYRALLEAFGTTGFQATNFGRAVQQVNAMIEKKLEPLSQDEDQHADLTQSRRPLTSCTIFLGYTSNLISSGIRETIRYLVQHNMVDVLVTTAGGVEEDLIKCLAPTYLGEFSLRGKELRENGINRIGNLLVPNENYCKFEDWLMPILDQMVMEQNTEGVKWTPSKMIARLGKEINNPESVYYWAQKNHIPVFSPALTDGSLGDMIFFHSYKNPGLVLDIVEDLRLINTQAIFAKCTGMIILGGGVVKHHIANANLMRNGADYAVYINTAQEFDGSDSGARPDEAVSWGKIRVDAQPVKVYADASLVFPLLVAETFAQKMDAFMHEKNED

[1] = biological target: T2, Jupiter microtubule associated homolog 2 (human, UniProt Q9H910 1-190); assay: protein array
T2 construct: on protein array; also called HN1L
T2 sequence: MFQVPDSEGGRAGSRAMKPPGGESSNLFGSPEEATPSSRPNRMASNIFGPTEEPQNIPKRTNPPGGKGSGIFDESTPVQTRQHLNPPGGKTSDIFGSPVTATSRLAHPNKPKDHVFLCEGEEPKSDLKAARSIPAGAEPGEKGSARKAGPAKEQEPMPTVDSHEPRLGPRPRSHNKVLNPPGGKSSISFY

BTB domain containing 8 = biological target: T3, BTB domain containing 8 (human, UniProt Q5XKL5 1-374, limits assumed); assay: protein array
T3 construct: on protein array; also called BTBD8
T3 sequence (Q5XKL5 other isoform, or with tags, fused parts or gaps limits assumed): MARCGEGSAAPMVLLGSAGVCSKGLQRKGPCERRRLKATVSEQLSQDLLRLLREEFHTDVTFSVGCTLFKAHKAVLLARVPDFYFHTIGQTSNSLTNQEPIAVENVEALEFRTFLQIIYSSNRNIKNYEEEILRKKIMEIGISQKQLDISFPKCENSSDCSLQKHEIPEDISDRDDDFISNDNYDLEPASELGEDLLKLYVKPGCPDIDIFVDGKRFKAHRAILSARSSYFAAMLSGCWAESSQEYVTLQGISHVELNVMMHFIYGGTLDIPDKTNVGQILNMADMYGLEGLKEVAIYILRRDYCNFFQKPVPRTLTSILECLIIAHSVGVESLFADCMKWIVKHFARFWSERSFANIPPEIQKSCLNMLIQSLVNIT

[2] = biological target: T4, HEAT repeat containing 3, transcript variant 1 (human, UniProt Q7Z4Q2 1-680); assay: protein array, with experimental replicate
T4 construct: on protein array; also called HEATR3
T4 sequence: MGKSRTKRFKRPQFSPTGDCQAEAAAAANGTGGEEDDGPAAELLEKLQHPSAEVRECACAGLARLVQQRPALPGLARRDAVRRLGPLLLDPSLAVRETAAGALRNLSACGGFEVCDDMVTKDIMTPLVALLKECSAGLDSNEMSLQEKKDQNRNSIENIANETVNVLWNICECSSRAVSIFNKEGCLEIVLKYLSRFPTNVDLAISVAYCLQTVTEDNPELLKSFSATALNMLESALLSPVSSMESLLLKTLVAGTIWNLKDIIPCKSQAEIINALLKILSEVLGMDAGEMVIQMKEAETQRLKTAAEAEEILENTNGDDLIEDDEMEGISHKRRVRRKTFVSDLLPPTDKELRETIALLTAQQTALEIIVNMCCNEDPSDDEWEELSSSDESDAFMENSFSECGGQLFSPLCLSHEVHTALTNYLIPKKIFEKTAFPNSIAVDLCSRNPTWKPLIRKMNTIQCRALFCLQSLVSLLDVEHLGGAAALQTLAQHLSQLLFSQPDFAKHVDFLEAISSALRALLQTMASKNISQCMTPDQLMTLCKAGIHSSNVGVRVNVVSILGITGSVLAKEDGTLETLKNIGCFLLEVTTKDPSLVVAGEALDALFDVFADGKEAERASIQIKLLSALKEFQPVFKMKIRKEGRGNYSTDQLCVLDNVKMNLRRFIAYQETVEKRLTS

[3] = biological target: T5, rhophilin associated tail protein 1 like, transcript variant 2 (human, UniProt Q96C74 1-230); assay: protein array
T5 construct: on protein array; also called ROPN1L
T5 sequence: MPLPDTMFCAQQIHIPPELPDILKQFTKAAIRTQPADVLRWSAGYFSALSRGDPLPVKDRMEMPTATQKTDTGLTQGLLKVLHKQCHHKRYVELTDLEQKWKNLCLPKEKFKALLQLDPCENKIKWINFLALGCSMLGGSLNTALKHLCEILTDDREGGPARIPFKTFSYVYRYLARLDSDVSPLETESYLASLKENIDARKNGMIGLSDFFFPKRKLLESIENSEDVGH

[4] = biological target: T6, Dpy-30 histone methyltransferase complex regulatory subunit (human, UniProt Q9C005 1-99); assay: protein array
T6 construct: on protein array
T6 sequence (Q9C005 whole entry, one chain of several): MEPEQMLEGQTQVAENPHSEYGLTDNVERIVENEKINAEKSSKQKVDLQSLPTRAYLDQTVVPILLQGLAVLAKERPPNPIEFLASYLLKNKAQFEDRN

[5] = biological target: T7, 5-hydroxytryptamine receptor 1E (human, UniProt P28566 1-365); assay: protein array
T7 construct: on protein array; also called HTR1E
T7 sequence (P28566 whole entry): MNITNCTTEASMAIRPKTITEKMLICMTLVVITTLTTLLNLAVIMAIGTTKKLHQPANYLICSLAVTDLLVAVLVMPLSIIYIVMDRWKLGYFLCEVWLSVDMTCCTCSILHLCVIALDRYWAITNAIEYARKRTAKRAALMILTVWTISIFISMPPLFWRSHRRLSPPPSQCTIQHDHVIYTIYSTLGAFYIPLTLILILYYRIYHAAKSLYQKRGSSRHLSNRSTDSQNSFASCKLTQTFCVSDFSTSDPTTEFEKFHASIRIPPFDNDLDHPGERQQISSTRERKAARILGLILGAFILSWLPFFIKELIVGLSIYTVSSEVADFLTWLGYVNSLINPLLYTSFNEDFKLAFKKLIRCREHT

[6] = biological target: T8, interleukin 27 receptor subunit alpha (human, UniProt Q6UWB1 33-636); assay: protein array
T8 construct: on protein array; also called IL27RA
T8 sequence: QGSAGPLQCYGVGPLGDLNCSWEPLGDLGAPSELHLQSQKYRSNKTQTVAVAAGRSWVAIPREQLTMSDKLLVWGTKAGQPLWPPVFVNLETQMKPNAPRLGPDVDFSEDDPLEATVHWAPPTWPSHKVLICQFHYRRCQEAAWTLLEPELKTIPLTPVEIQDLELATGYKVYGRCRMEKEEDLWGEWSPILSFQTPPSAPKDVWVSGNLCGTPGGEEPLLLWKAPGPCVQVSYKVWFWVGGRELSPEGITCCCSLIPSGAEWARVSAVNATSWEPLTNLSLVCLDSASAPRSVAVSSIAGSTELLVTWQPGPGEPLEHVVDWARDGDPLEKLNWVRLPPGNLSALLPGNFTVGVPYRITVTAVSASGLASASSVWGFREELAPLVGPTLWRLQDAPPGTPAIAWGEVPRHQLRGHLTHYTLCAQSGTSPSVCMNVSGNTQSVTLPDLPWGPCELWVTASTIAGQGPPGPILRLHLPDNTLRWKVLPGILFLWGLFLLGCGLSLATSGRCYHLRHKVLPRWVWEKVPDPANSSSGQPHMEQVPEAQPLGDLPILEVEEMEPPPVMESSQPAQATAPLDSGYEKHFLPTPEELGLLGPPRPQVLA

[7] = biological target: T9, microfibril associated protein 3, transcript variant 3 (human, UniProt P55082 19-362); assay: protein array
T9 construct: on protein array; also called MFAP3
T9 sequence (P55082 19-362 limits assumed, change not shown): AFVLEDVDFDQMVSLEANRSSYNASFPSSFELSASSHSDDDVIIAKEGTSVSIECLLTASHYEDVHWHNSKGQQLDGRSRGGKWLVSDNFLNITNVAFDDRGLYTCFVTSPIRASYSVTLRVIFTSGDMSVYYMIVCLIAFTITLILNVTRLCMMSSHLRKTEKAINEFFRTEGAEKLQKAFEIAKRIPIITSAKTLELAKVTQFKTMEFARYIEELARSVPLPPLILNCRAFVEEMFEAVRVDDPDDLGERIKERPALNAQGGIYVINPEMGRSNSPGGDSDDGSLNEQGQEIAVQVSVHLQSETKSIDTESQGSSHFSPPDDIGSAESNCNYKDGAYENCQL

[8] = biological target: T10, microtubule associated protein RP/EB family member 2, transcript variant 1 (human, UniProt Q15555 1-327); assay: protein array
T10 construct: on protein array; also called MAPRE2
T10 sequence (Q15555 whole entry, change not shown): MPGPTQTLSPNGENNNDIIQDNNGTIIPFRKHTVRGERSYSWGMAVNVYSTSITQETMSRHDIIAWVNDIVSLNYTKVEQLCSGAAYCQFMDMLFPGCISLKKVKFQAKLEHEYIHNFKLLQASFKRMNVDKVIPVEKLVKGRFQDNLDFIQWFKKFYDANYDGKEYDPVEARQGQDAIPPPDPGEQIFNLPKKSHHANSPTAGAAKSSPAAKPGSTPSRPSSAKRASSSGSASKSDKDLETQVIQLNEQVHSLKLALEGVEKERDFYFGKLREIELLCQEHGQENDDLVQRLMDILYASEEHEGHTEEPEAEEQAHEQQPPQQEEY

[9] = biological target: T11, serpin family B member 6, transcript variant 2 (human, UniProt P35237 1-376); assay: protein array
T11 construct: on protein array; also called SERPINB6
T11 sequence: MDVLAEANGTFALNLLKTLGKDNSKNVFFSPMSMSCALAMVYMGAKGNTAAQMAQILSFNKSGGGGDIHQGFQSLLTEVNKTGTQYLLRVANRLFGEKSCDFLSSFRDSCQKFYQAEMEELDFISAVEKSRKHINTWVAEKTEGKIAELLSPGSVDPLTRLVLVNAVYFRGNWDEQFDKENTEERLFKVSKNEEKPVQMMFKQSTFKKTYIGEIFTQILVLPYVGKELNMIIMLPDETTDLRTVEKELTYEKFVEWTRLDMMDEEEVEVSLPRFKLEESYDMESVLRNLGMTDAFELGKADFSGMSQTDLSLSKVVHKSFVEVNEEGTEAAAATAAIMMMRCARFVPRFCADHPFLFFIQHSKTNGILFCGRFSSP

binding result [5]: binds
B5: TBLA1013 (antibody, V domains shown)
VH: EVQLLESGGGLVQPGGSLTLSCVGSRFTFSSYAMNWVRQSPGRGLEWVASISATTGSTYYTDSVEGRFTISRDNSRDTLYLQMNSLRADDTALYYCVRSFVGAVPAYPNFDFWGPGTLVTVSS
VL: PSGLTQPPSASGTPGQRVTMSCSGSSSNIGRNYVYWYQQLPGAAPKLLIYRDNQRPSGVPDRFSGSKSGTSASLAISGLRSEDEADYYCAAWDDNVSGPGFGAGTRLTVLG
notes: VH/VL only

binding result [6]: binds
B6: TOVA1002 (antibody, V domains shown)
VH: QVQLVESGGGVVQPGRSLRLSCAASGFTFSNFAMHWVRQAPGKGLEWVVVISSDGSNKNYADSVKGRFTISRDNSKNTLYLQMNSLRAEDTAVYYCARDLGVGSTTYWGQGTLVTVSS
VL: SYVLTQPPSVSVAPGQTARITCGGNNIGSKSVHWYQQKPGQAPVLVVYDDSDRPSGIPERFSGSNSGNTATLTISRVEAGDEADYYCQVWDGYSDPLVFGGGTKLTVLG
notes: VH/VL tied via antigen in summary, not by name in this stretch

binding result [7]: binds
B7: TBRE1002 (antibody, V domains shown)
VH: QVQLVESGGGVVQPGGSLRLSCGASGFAFSSNGMHWVRQAPGKGLEWVAFIHYDGRNKHYTDSVKGRFAISVDDSKTTLYLQMSSLKTEDTAVYYCVKDSRVTGQSSGYIFDSWGQGTLVTVSS
VL: ETVMTQSPATLSVSPGDRATLSCRASQNVNFNLAWYQQKPGQAPRLLIYDASTRATGIPARFSGSASGTEFTLTINSLQSEDFAVYYCQQYNNWWTFGQGTKLEIKR
notes: VH/VL only

binding result [8]: binds
B8: TMES1004 (antibody, V domains shown)
VH: QVQLVQSGAEVKKPGASVKISCKASGYTFTSHAIHWVRQAPGQTFEWLGWINPVNGVTKYSQTFQDRVTIVRDKSATTTYMDLSGLTFEDTAMYYCARVLDFYGSSVLDYWGQGTLVTVSS
VL: QSALTQPASVSGSPGQSITISCTGTSSDIGTYNLVSWYQQRPGKAPKLIIYDVIKRPSGISDRFSGSKSDNMASLTISGLQAEDEAHYYCCSYRSSTAPVVFGGGTKVTVL
notes: as for B6

binding result [9]: binds
B9: TMEL1040 (antibody, V domains shown)
VH: EVQLVQSGAEVKKPGESLKISCKGSGYSFTTYWIAWVRQMPGKGLEWMGIIYPADSDTRYSPSFQGQVTMSADQSINTAYLQWSSLKASDTAMYYCARRGREFDYWGQGTLLTVSS
VL: QSALTQPASVSGSPGQSITISCTGTSSDVGSYNLVSWYQQHPGKAPKLMIYEGSKRPSGVSNRFSGSKSGNTASLTISGLQAEDEADYYCCSYAGSSTPWVFGGGTKLTVL
notes: as for B6

Second part, the binder before the results:

B1: TOVA1003 (antibody)
VH: GEQLLESGGGLVQPGGSLRLSCAASGFTFSHYAMTWVRQAPGKGLEWVSGVSGSGFTTYYADSVKGRFTISRDNAQNTLYLHMNSLRAEDTAIYYCVKDLEVSIGHNFDFWGQGTLVTVSSASTKGPSVFPLAPSSKSTSGGTAALGCLVKDYFPEPVTVSWNSGALTSGVHTFPAVLQSSGLYSLSSVVTVPSSSLGTQTYICNVNHKPSNTKVDKRV
VL: EVQMTQSPSSLSASVGDRVTITCRASQHIAGRLNWYQQKPGKAPKLLIHSASSVQREVPSRFGGSGFGTDFTLTIYSLQAEDFATYFCQQSYYTPPTFAGGTRVDLKRTVAAPSVFIFPPSDEQLKSGTASVVCLLNNFYPREAKVQWKVDNALQSGNSQESVTEQDSKDSTYSLSSTLTLSKADYEKHKVYACEVTHQGLSSPVTKSFNRGEC
notes: as for B6
binding result (Deoxyhypusine synthase): binds

B2: TMES1002 (antibody, V domains shown)
VH: QVQVVESGGGLVKPGGSLRLSCAVSGLDFRDYYVNWIRQAPGKGLEWLSYITSPGGHTSYSDSVKGRFTISRDNAKNSVYLQMDSLTVEDTAVYFCAIKEGYGLSDWGQGTLVTVSS
VL: EIVLTQSPVTLSLSPGERATLSCRASQSVSSSYIAWYQQKPGQAPRLLIYGASTRATGIPDRFSGSGSGTDFTLTISRLEPEDCAVFYCQQYGSSHYTFGQGTKLEIKR
notes: as for B6
binding result [1]: binds | binding result (BTB domain containing 8): binds

B3: TOVA1004 (antibody, V domains shown)
VH: EVQLVESGGGLVKPGGSLRLSCAASGFTFSSYSMNWVRQAPGKGLEWVSSISSSSSYIYYADSVKGRFTISRDNAKNSLYLQMNSLRAEDTAVYYCARDRGVVVVAATPYYYGMDVWGQGTTVTVSS
VL: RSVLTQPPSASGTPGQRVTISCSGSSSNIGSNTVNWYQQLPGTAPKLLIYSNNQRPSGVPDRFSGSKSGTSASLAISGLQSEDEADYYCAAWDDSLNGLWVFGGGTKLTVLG
notes: as for B6
binding result [2]: binds

B4: TMEL1041 (antibody, V domains shown)
VH: EVQLLESGGGLVQPGGSLRLSCAASGFTFRIYAMSWVRQAPGKGLEWVSAISYSGNTTYYADSVKGRFTISRDNSKNTLYLQINNLRAEDTAIYYCAIQEKRELQLRRELDNYWGQGTLVTVSS
VL: PYELTQPPSVSLSPGQTARITCSGDALPKKYAYWYQQKSGQAPVLVIYEDSKRPSGIPERFSGSSSGTTATLTISGAQVDDEGDYYCYSPDSSGNVWVFGGGTKLTVLG
notes: as for B6
binding result [3]: binds | binding result [4]: binds
